# Test results from patent WO2018178074A1 (dated 2018).
# Legend:
# human FAP on cells = target: T1, human FAP on cells (human, UniProt Q12884 1-760); assay: flow cytometry on NIH/3T3-huFAP clone 39 cells
# T1 construct: Natural FAP of the melanoma line WM266-4, or human FAP from vector pETR4921 in NIH/3T3 cells; also called huFAP on WM266-4 cells; human FAP on NIH/3T3-huFAP clone 39 cells
# [1] = target: T2, human FAP (soluble, second analyte in SPR) (human, UniProt Q12884 26-760); assay: SPR Biacore T200, biotinylated human 4-1BB Fc(kih) on SA chip, construct 200 nM, then human FAP 500 nM
# T2 construct: also called human FAP protein
# human 4-1BB on cells = target: T3, human 4-1BB on cells (human, UniProt Q07011 24-255); assay: flow cytometry on activated human PBMC (legend of Figure 14)
# T3 construct: also called human 4-1BB on NF-kB-luciferase human-4-1BB HeLa clone 26 cells
# T3 sequence (Q07011 24-255 limits assumed): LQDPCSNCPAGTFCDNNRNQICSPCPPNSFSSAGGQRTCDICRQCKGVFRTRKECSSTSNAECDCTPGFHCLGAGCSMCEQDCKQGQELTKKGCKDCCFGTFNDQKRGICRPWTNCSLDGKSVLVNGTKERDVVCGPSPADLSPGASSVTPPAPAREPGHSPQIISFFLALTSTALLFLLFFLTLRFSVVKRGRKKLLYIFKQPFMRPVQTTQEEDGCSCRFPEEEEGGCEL
binding result (human FAP on cells),binding result [1],binding result (human 4-1BB on cells),Binder
no binding,,,"25G7 huIgG1 P329G LALA (antibody, V domains shown, Human IgG1 with Pro329Gly, Leu234Ala, Leu235Ala; also called 25G7 hulgGI P329G LALA; parental huIgG1 P329G LALA 25G7) VH: not shown VL: SSELTQDPAVSVALGQTVRITCQGDSLRSYYASWYQQKPGQAPVLVIYGKNNRPSGIPDRFSGSSSGNTASLTITGAQAEDEADYYCNSLDRRGMWVFGGGTKLTVLG"
binds,binds,binds,"25G7 x FAP 3+3 (bispecific antibody, Trimer of three CMP chains, each paired with an anti-4-1BB light chain; no Fc; also called 3+3 25G7/28H1) not shown light: SSELTQDPAVSVALGQTVRITCQGDSLRSYYASWYQQKPGQAPVLVIYGKNNRPSGIPDRFSGSSSGNTASLTITGAQAEDEADYYCNSLDRRGMWVFGGGTKLTVRTVAAPSVFIFPPSDEQLKSGTASVVCLLNNFYPREAKVQWKVDNALQSGNSQESVTEQDSKDSTYSLSSTLTLSKADYEKHKVYACEVTHQGLSSPVTKSFNRGEC"
no binding,,,"12B3 huIgG1 P329G LALA (antibody, V domains shown, Human IgG1 with Pro329Gly, Leu234Ala, Leu235Ala; also called 12B3 hulgGI P329G LALA; parental huIgG1 P329G LALA 12B3) VH: QVQLVQSGAEVKKPGSSVKVSCKASGGTFSSYAISWVRQAPGQGLEWMGGIIPIFGTANYAQKFQGRVTITADKSTSTAYMELSSLRSEDTAVYYCARSEFRFYADFDYWGQGTTVTVSS VL: not shown"
